# Measurements as given in article PMC9098913, “In vitro reconstitution of Escherichia coli divisome activation” (Nature Communications, 2022).
# B1: FtsA R286W-His6: FtsA R286W (1-405) with amphipathic helix replaced by C-terminal His-tag (protein)
# chain: MIKATDRKLVVGLEIGTAKVAALVGEVLPDGMVNIIGVGSCPSRGMDKGGVNDLESVVKCVQRAIDQAELMADCQISSVYLALSGKHISCQNEIGMVPISEEEVTQEDVENVVHTAKSVRVRDEHRVLHVIPQEYAIDYQEGIKNPVGLSGVRMQAKVHLITCHNDMAKNIVKAVERCGLKVDQLIFAGLASSYSVLTEDERELGVCVVDIGGGTMDIAVYTGGALRHTKVIPYAGNVVTSDIAYAFGTPPSDAEAIKVRHGCALGSIVGKDESVEVPSVGGRPPWSLQRQTLAEVIEPRYTELLNLVNEEILQLQEKLRQQGVKHHLAAGIVLTGGAAQIEGLAACAQRVFHTQVRIGAPLNITGLTDYAQEPYYSTAVGLLHYGKESHLNGEAEVEKRVTASV
# modifications: Cy3 or Cy5 at the N-terminus in the labelled form (sortagging as for native FtsA); left off: TwinStrep-SUMO, N-terminal, cleaved | 5xGlycine tag, N-terminal, kept | His6, C-terminal, kept
# What was measured:
# [1] = test system: FtsZ
# Outline: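 Cy5-labelled His-tagged FtsA variants (0.5–1 µM) tethered to supported membranes via Tris-NTA lipids, with Tris-NTA density set by mixing SUVs; FRET/FRAP used equimolar Cy3/Cy5 FtsA. FtsZ–FtsA co-treadmilling imaged as dual-colour videos at one frame per 2 s; dynamics and colocalization quantified by automated image subtraction analysis.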
# [2] = Membrane off-binding rate (koff) of FtsA from FRAP; design: Off binding rate koff: unit not given here; conditions: Fig. S4i, summary value
# Outline: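 Equimolar Cy3- and Cy5-labelled FtsA plus 20% unlabelled FtsA on membrane; a rectangular ROI is bleached with the 641 nm laser and recovery imaged at one or two frames per second. Diffusion coefficient and off-rate are separated by fitting the shape of the recovery profile, using the change in slope at the bleach borders.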
# [3] = test system: FtsZ; conditions: […] Tris-NTA; p-value 3.86 × 10^−4; three repeats
# Outline: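 Cy5-labelled His-tagged FtsA (0.5–1 µM) bound to Tris-NTA-containing supported membranes, 20 min, washed; FtsA density set by Tris-NTA fraction. Time-lapse images drift-corrected; colocalization with FtsZ as Pearson's coefficient, FtsZ/FtsA ratio from linear-regression slope of intensity scatterplots.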
molecule,measurement,setting,value
B1,"co-treadmilling with FtsZ, reduction compared to the reversibly membrane-binding protein",[1]; […] Tris-NTA R286W-His6 vs 0.8 µM R286W,about 50%
same,PCCdiff His-tagged FtsA/FtsZ,"[1]; […] Tris-NTA, p-value […] 10^−4 (vs WT-His6), 7.78 × 10^−5 (vs R286W), three repeats",0.36 ± 0.02
same,Off binding rate koff,"[2]; 0.10 % Tris-NTA lipids, + FtsZ",0.0533
same,Off binding rate koff,"[2]; 0.10 % Tris-NTA lipids, without FtsZ",0.0639
same,Off binding rate koff,"[2]; 0.40 % Tris-NTA lipids, + FtsZ",0.0309
same,Off binding rate koff,"[2]; 0.40 % Tris-NTA lipids, without FtsZ",0.0536
same,Off binding rate koff,"[2]; 0.60 % Tris-NTA lipids, + FtsZ",0.0489
same,Off binding rate koff,"[2]; 0.60 % Tris-NTA lipids, without FtsZ",0.0398
same,Off binding rate koff,"[2]; […] Tris-NTA lipids, + FtsZ",0.0386
same,Off binding rate koff,"[2]; […] Tris-NTA lipids, without FtsZ",0.0644
same,PCC His-tagged FtsA/FtsZ,[3],0.63 ± 0.02
